Assays:
Assay in all cases: HPLC of glucoside product
Format in all cases: biochemical, Camellia sinensis
[1] = substrate: O=C(O)/C=C/c1ccc(O)cc1; details: UDP-glucose as sugar donor; optimum pH 6.5, 40 °C; pH 6.5; 40.0 °C
[2] = substrate: O=C(O)Cc1c[nH]c2ccccc12; details: UDP-glucose as sugar donor; optimum pH 6.5, 30 °C; pH 6.5; 30.0 °C
[3] = substrate: O=c1c(O)c(-c2ccc(O)cc2)oc2cc(O)cc(O)c12; details: UDP-glucose as sugar donor; optimum pH 9.5, 40 °C; pH 9.5; 40.0 °C

B1: rCsUGT84J2 (TEA000239) (Camellia sinensis) (protein)
chain: MAAMEKKEEIHVLMVAFSSQGHINPMLRLAKRLHSKGLHVTLATTEIARHRMLTSSSATTTAVAANSIDGISLAFFSDGLSLDYDRKTNLDHYMDSLGRAGPANLSSIILHHHSHGGRKFSCIVTNPFIPWAADVAAEHGIPCALLWIQPCSLYSIYYRFYNHLNQFPSSANPNMSVELPGLPLLNTEDLPSFVLPSNPFGSFPKLFCGLFQNMQKMKWVLANSFHELESQAIDSMFDIHPVLPIGPLVPPSILGEDQAVDAGVEMWKSEDNCIEWLDQQQPNSVIYVSFGSVVILSPLQMESIATGLKNCNRPFLWVVKKSDYTAKEGEGQLPLGFLEETKGRGLVVQWSPQIKVLMNPAVGCFLTHCGWNSMLETIAAGVPVIAYPQWTDQPTNAKLMAEVLRVGVRLRPNQDGVVTNEEVERRIEDVMCGPEAEEFREKAAELKVAARVAVADGGSSDRNIQLFVDEIIGDSST
[1]
  Km: 0.243 µM
[2]
  Km: 0.522 µM
[3]
  Km: 0.127 µM
